Test results published in patent US20260109758A1 (BIOSION, published 2026).
Like-named read-outs stand apart in the source and are kept apart here.

Experiments:
[1] = target: human IL4Rα on HEK293T-IL4R/STAT6/STAT6-Luc LB2 cells (human, UniProt P24394 26-825); experiment: cell-based or functional assay
[2] = target: T1, human IL4Rα expressed on 293F-IL4Rα cell surface (human, UniProt P24394 26-825); experiment: flow cytometry on 293F-IL4Rα cells, PE anti-human IgG Fc
T1 construct: whole, on cells; also called human IL4Rα-expressing cells; cell surface IL4R
Experimental: (§1) Cells were washed twice with FACS buffer, and added with 100 μL/well R-Phycoerythrin AffiniPure Goat Anti-Human IgG, Fey fragment specific (1:1000 dilution in FACS buffer, Jackson Immunoresearch, Cat #109-115-098). Following an incubation of 40 minutes at 4° C. in dark, cells were washed three times and resuspended in FACS buffer. Fluorescence was measured using a Becton Dickinson FACS Canto II-HTS equipment. Data was analyzed using Graphpad Prism and EC₅₀ values were reported.

[3] = target: T1, human IL4Rα expressed on 293F-IL4Rα …; experiment: cell-based blocking FACS on 293F-IL4Rα cells; blocked ligand biotin human IL4
Experimental: (§2) Then, 1×10⁵ cells per well were incubated in 96 well-plates in 100 μL of serially diluted bispecific antibodies, the positive controls or negative control (starting at 100 nM with a 5-fold serial dilution) in FACS buffer for 40 minutes on ice. […] The plates were washed twice with FACS buffer, and then added and incubated for 40 minutes at 4° C. in dark with 100 μL/well R-Phycoerythrin Streptavidin (1:500 dilution in FACS buffer, Jackson Immunoresearch, Cat #016-110-084). Cells were washed twice and resuspended in FACS buffer. Fluorescence was measured using a Becton Dickinson FACS Canto II-HTS equipment. Data was analyzed using Graphpad Prism and IC₅₀ values were reported.

[4] = target: T2, recombinant human IL4Rα-his (human, UniProt P24394 26-231, limits assumed, biotin-labeled in the capture ELISA); experiment: capture ELISA: antibody captured on anti-human IgG Fc F(ab')2, biotin human IL4Rα-his, SA-HRP
T2 construct: In-house made; not shown: His tag at the C-terminus
Experimental: (§3) Briefly, 96-well plates were coated with 2 μg/mL AffiniPure F(ab′)₂ Fragment Goat Anti-Human IgG, Fey fragment specific (Jackson Immuno Research, Cat #109-006-008) in PBS, 100 μL/well, overnight at 4° C. Plates were washed once with wash buffer (PBS+0.05% w/v Tween-20, PBST) and then blocked with 200 μL/well blocking buffer (5% w/v non-fatty milk in PBST) for 2 hours at 37° C. […] After a final wash, plates were incubated with 100 μL/well ELISA substrate TMB (Innoreagents, Cat #TMB-S-002). The reaction was stopped in 10 minutes at 25° C. with 50 μL/well 1M H₂SO₄, and the absorbance was read on a microplate reader using dual wavelength mode with 450 nm for TMB and 630 nm as the reference wavelength. Data was analyzed using Graphpad Prism and EC₅₀ values were reported.

[5] = target: T2, recombinant human IL4Rα-his; experiment: SPR Biacore T200; antibody captured on anti-human IgG CM5 chip, IL4Rα-his as analyte; 1:1 Langmuir fit
Experimental: The goat anti-human IgG (GE healthcare, Cat #BR100839, Human Antibody Capture Kit) was covalently linked to a CM5 chip (carboxy methyl dextran coated chip) via primary amines, using a standard amine coupling kit provided by Biacore (GE healthcare, Pittsburgh, PA, USA). Un-reacted moieties on the biosensor surface were blocked with ethanolamine. Then, purified bispecific antibodies of the disclosure at the concentration of 66.67 nM and the controls at 10 μg/mL, were flowed onto the chip at a flow rate of 10 μL/min. Then, serially diluted recombinant human IL4Rα-his (in house made, IL4Rα of SEQ ID NO: 33 with His tag at C-terminus) in HBS EP buffer (provided by Biacore) was flowed onto the chip at a flow rate of 30 μL/min. The association and dissociation curves were fit to a 1:1 Langmuir binding model using BIAcore evaluation software.

[6] = target: T2, recombinant human IL4Rα-his; experiment: competitive ELISA: coated human IL4Rα-his, antibody titrated; blocked ligand biotin human IL4
Experimental: (§4) Briefly, 100 μL human IL4Rα-his proteins (prepared in-house, IL4Rα of SEQ ID NO: 33 with C-terminal His tag) were coated on 96-well micro plates at 2 μg/mL in PBS overnight at 4° C. The next day, plates were washed with wash buffer (PBS+0.05% w/v Tween-20, PBST), and blocked with 5% w/v non-fatty milk in PBST for 2 hours at 37° C. Plates were then washed again using wash buffer. Serially diluted bispecific antibodies or the controls (starting at 100 nM with a 5-fold serial dilution) in 2.5% w/v non-fatty milk in PBST, 100 μL per well, were added to the IL4Rα bound plates, and incubated at 37° C. for 40 minutes. […] Plates were washed again using wash buffer. Thereafter, the plates were added with 100 μL/well of streptavidin conjugated HRP (1:10000 dilution in PBST buffer, Jackson Immunoresearch, Cat #016-030-084) and incubated for 40 minutes at 37° C. Plates were washed again using wash buffer. Finally, TMB was added and the reaction was stopped using 1M H₂SO₄, and the absorbance was read at 450 nm. Data was analyzed using Graphpad Prism and IC₅₀ values were reported.

[7] = target: T2, recombinant human IL4Rα-his; experiment: as above; remark: listed apart in the source
Experimental: as §4

[8] = target: T3, recombinant human TSLP-his (human, UniProt Q969D9 29-159, biotin-labeled in the ELISAs); experiment: SPR Biacore; TSLP-his amine-coupled to CM5 chip, antibody as analyte; 1:1 Langmuir fit
T3 construct: In-house made; not shown: His tag at the C-terminus
Experimental: Un-reacted moieties on the biosensor surface were blocked with ethanolamine. Then, serially diluted purified bispecific antibodies and the controls (2-fold serial dilution in HBS-EP⁺ buffer starting at 100 nM) were respectively flowed onto the chip at a flow rate of 30 μL/min. The antigen-antibody association kinetics was followed for 4 minutes and the dissociation kinetics was followed for 13 minutes.

[9] = target: T3, recombinant human TSLP-his; experiment: capture ELISA: antibody captured on anti-human IgG Fc F(ab')2, biotin human TSLP-his, SA-HRP
Experimental: (§5) Briefly, 96-well micro plates were coated with 100 μL 2 μg/mL AffiniPure F(ab′)₂ Fragment Goat Anti-Human IgG, Fey fragment specific (Jackson Immuno Research, Cat #109-006-008) in PBS and incubated overnight at 4° C. Plates were washed 4 times with wash buffer (PBS+0.05% Tween-20, PBST) and then blocked with 200 μL/well blocking buffer (5% w/v non-fatty milk in PBST) for 2 hours at 37° C. […] After the final wash, the plates were incubated with 100 μL/well TMB (Innoreagents). The reaction was stopped 15 minutes later at room temperature with 50 μL/well 1M H₂SO₄, and the absorbance of each well was read on a microplate reader using dual wavelength mode with 450 nm for TMB and 630 nm as the reference wavelength. The OD (450-630) values were plotted against antibody concentration. Data was analyzed using Graphpad Prism and EC₅₀ values were reported.

[10] = target: T3, recombinant human TSLP-his; experiment: as above; remark: listed apart in the source
Experimental: as §5

[11] = target: T1, human IL4Rα expressed on 293F-IL4Rα …; experiment: flow cytometry on 293F-IL4Rα cells, PE anti-human IgG Fc; remark: listed apart in the source
Experimental: as §1

[12] = target: T1, human IL4Rα expressed on 293F-IL4Rα …; experiment: cell-based blocking FACS on 293F-IL4Rα cells; blocked ligand biotin human IL4; remark: listed apart in the source
Experimental: as §2

[13] = target: T2, recombinant human IL4Rα-his; experiment: capture ELISA: antibody captured on anti-human IgG Fc F(ab')2, biotin human IL4Rα-his, SA-HRP; remark: listed apart in the source
Experimental: as §3

B1: Dupilumab (antibody, V domains shown)
VH: EVQLVESGGGLEQPGGSLRLSCAGSGFTFRDYAMTWVRQAPGKGLEWVSSISGSGGNTYYADSVKGRFTISRDNSKNTLYLQMNSLRAEDTAVYYCAKDRLSITIRPRYYGLDVWGQGTTVTVSS
VL: DIVMTQSPLSLPVTPGEPASISCRSSQSLLYSIGYNYLDWYLQKSGQSPQLLIYLGSNRASGVPDRFSGSGSGTDFTLKISRVEAEDVGFYYCMQALQTPYTFGQGTKLEIKR
Inhibition on IL4 induced STAT6 phosphorylation (IC50, nM) [1]: 0.00473 nM | Inhibition on IL13 induced STAT6 phosphorylation (IC50, nM) [1]: 0.0262 nM | EC50 [2]: 0.128 nM | IC50 [3]: 0.102 nM | EC50 [4]: 0.015 nM | Kd [5]: 0.196 nM | koff [5]: 5.58e-05 s⁻¹ | kon [5]: 285000 M⁻¹ s⁻¹ | IC50 [6]: 0.22 nM | IC50 [7]: 0.254 nM

B2: hu1C5F12E9-V8(IgG1) (antibody)
heavy: QVQLVQSGAEVKKPGASVKVSCKASGYTFTTYWMHWVRQAPGQGLEWMGVIDPSDSDTTYNQKFKGRVTMTRDTSTSTVYMELSSLRSEDTAVYYCTRSLDGYYDYWGQGTLVTVSSASTKGPSVFPLAPSSKSTSGGTAALGCLVKDYFPEPVTVSWNSGALTSGVHTFPAVLQSSGLYSLSSVVTVPSSSLGTQTYICNVNHKPSNTKVDKKVEPKSCDKTHTCPPCPAPEAQGGPSVFLFPPKPKDTLYITREPEVTCVVVDVSHEDPEVKFNWYVDGVEVHNAKTKPREEQYNSTYRVVSVLTVLHQDWLNGKEYKCQVSNKALPAPIEKTISKAKGQPREPQVYTLPPSRDELTKNQVSLTCLVKGFYPSDIAVEWESNGQPENNYKTTPPVLDSDGSFFLYSKLTVDKSRWQQGNVFSCSVMHEALHNHYTQKSLSLSPG
light: DIQMTQSPSSLSASVGDRVTITCRPTENIYSYLAWYQQKPGKAPKLLIYFARTLAEGVPSRFSGSGSGTDFTLTISSLQPEDFATYYCQHHYGTPWTFGGGTKVEIKRTVAAPSVFIFPPSDEQLKSGTASVVCLLNNFYPREAKVQWKVDNALQSGNSQESVTEQDSKDSTYSLSSTLTLSKADYEKHKVYACEVTHQGLSSPVTKSFNRGEC
notes: Monospecific control, full-length IgG1; also called anti-TSLP hu1C5F12E9-V8
Kd [8]: < 0.0157 nM | koff [8]: < 1e-05 s⁻¹ | kon [8]: 636000 M⁻¹ s⁻¹ | EC50 [9]: 0.0487 nM | EC50 [10]: 0.0511 nM

B3: huC2C1A1A1-V15(IgG4) (antibody)
heavy: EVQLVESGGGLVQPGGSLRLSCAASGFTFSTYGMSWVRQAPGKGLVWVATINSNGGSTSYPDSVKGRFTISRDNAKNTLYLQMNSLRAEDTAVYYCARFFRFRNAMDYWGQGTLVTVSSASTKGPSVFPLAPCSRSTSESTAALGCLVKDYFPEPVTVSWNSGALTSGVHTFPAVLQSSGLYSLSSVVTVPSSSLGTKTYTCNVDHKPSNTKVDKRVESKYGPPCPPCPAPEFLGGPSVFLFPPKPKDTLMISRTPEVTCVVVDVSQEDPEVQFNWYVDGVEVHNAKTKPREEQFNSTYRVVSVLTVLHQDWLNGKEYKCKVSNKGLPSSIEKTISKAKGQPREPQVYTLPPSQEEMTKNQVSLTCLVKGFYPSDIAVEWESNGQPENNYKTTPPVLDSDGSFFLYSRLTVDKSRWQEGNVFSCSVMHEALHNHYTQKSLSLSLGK
light: DIQMTQSPSSLSASVGDRVTITCRTSENIYSYLAWYQQKPGKAPKFLVYNAKTLAEGVPSRFSGSGSGTDFTLTISSLQPEDFATYYCQHYYGPPTWTFGQGTKVEIKRTVAAPSVFIFPPSDEQLKSGTASVVCLLNNFYPREAKVQWKVDNALQSGNSQESVTEQDSKDSTYSLSSTLTLSKADYEKHKVYACEVTHQGLSSPVTKSFNRGEC
notes: also called anti-IL4R huC2C1A1A1-V15
Inhibition on IL4 induced STAT6 phosphorylation (IC50, nM) [1]: 0.015 nM | Inhibition on IL13 induced STAT6 phosphorylation (IC50, nM) [1]: 0.033 nM | EC50 [11]: ~0.161 nM | IC50 [12]: 0.107 nM | EC50 [13]: 0.0225 nM | IC50 [6]: 0.266 nM | IC50 [7]: 0.364 nM
